Measured values: the supplement of paper PMC9233669
This sample holds only a part of the variants without activity.

What was measured:
biotinyl-Trp-oxazolone = experiment: self-aminoacylation, catalytic enhancement (BWO) (fold over background); higher = more active; k-Seq, kA / k0A0; sequences stand for … in GGGAAUGGAUCCACAUCUACGAAUUC…UUCACUGCAGACUUGACGAAGCUG
In short: (§1)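 Mutagenized RNA pools with a 21-nt variable region (0.43 μM) reacted with each biotinyl-aminoacyl-oxazolone at 2–1250 μM. Reactions ran in 50 μL HEPES/NaCl/KCl/MgCl2/CaCl2 buffer with 5% acetonitrile, pH 6.9–7.0, for 90 minutes at room temperature. Streptavidin-captured RNA was quantified by triplicate qPCR and Illumina sequencing, and per-sequence fraction reacted was fit to a pseudo-first-order model with 1000 bootstraps. Catalytic enhancement is median kA divided by the uncatalyzed rate, the low-activity peak of a bimodal Gaussian fit.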

biotinyl-Ile-oxazolone = experiment: self-aminoacylation, catalytic enhancement (BIO) (fold over background); higher = more active; k-Seq, kA / k0A0; sequences stand for … in GGGAAUGGAUCCACAUCUACGAAUUC…UUCACUGCAGACUUGACGAAGCUG
In short: as §1

biotinyl-Leu-oxazolone = experiment: self-aminoacylation, catalytic enhancement (BLO) (fold over background); higher = more active; k-Seq, kA / k0A0; sequences stand for … in GGGAAUGGAUCCACAUCUACGAAUUC…UUCACUGCAGACUUGACGAAGCUG
In short: as §1

biotinyl-Val-oxazolone = experiment: self-aminoacylation, catalytic enhancement (BVO) (fold over background); higher = more active; k-Seq, kA / k0A0; sequences stand for … in GGGAAUGGAUCCACAUCUACGAAUUC…UUCACUGCAGACUUGACGAAGCUG
In short: as §1

biotinyl-Met-oxazolone = experiment: self-aminoacylation, catalytic enhancement (BMO) (fold over background); higher = more active; k-Seq, kA / k0A0; sequences stand for … in GGGAAUGGAUCCACAUCUACGAAUUC…UUCACUGCAGACUUGACGAAGCUG
In short: as §1

biotinyl-Phe-oxazolone = experiment: self-aminoacylation, catalytic enhancement (BFO) (fold over background); higher = more active; k-Seq, kA / k0A0; sequences stand for … in GGGAAUGGAUCCACAUCUACGAAUUC…UUCACUGCAGACUUGACGAAGCUG
In short: as §1

Sequence	self-aminoacylation (biotinyl-Trp-oxazolone)	self-aminoacylation (biotinyl-Ile-oxazolone)	self-aminoacylation (biotinyl-Leu-oxazolone)	self-aminoacylation (biotinyl-Val-oxazolone)	self-aminoacylation (biotinyl-Met-oxazolone)	self-aminoacylation (biotinyl-Phe-oxazolone)
AUUCACCUCGGUCAGCGGGUG [Fam2.2 aminoacylation ribozyme variant]	4.8	3.13	5.84	3.37	4.51	28.3
AUUCACCUCGGUCAUCGCGUG [Fam2.2 aminoacylation ribozyme variant]	12.9	6.77	16	7.67	11.4	109
AUUCACCUCGGUCAUCGGGGG [Fam2.2 aminoacylation ribozyme variant]	2.72	2.66	2.98	2.67	3.13	12.8
AUUCACCUCGGUUAUCGGGUG [Fam2.2 aminoacylation ribozyme variant]	7.82	4.48	7.66	4.58	5.58	41.1
AUUCACCUCUGUCAUCGGGUG [Fam2.2 aminoacylation ribozyme variant]	7.31	3.8	10.1	4.06	7.32	54.5
AUUCACCUGGCUCAUCGGGUG [Fam2.2 aminoacylation ribozyme variant]	2.44	2.18	3.2	3.81	1.79	18.3
AUUCACCUGGGGCAUCGGGUG [Fam2.2 aminoacylation ribozyme variant]	7.38	4.42	5.93	6.59	5.8	36.1
AUUCACCUGGGUCAUCGGGUA [Fam2.2 aminoacylation ribozyme variant]	14.8	8.3	22.3	10.6	18.6	47.8
AUUCACCUGGGUGAUCGGGUG [Fam2.2 aminoacylation ribozyme variant]	6.7	3.9	4.89	4.45	4.39	24.1
AUUCACCUGGGUUAUCGGGUG [Fam2.2 aminoacylation ribozyme variant]	5.56	3.35	6.24	4	6.06	36.6
AUUCACCUUCGUCAUCGGGUG [Fam2.2 aminoacylation ribozyme variant]	2.79	2.12	3.28	2.38	2.3	14.9
AUUCACCUUGGUCAUCAGGUG [Fam2.2 aminoacylation ribozyme variant]	2.15	1.7	2.49	1.39	1.9	7.28
AUUCACCUUGGUCAUCGGGUA [Fam2.2 aminoacylation ribozyme variant]	2.75	2.5	2.64	2.98	3.09	5.21
AUUCACCUUGGUCCUCGGGUG [Fam2.2 aminoacylation ribozyme variant]	5.17	3.53	8.12	3.67	5.93	39.2
AUUCACGUACGUCAUCGGGUG [Fam2.2 aminoacylation ribozyme variant]	9.47	6.46	12.8	6.9	12.2	79.8
AUUCACGUAGGUAAUCGGGUG [Fam2.2 aminoacylation ribozyme variant]	4.53	2.91	5.06	3.22	3.84	23.1
AUUCACGUAGGUCAUCAGGUG [Fam2.2 aminoacylation ribozyme variant]	2.88	1.99	2.7	2.24	2.77	5.34
AUUCACGUAGGUCCUCGGGUG [Fam2.2 aminoacylation ribozyme variant]	8.52	5.5	12.1	5.83	9.66	64.9
AUUCACUUAGGGCAUCGGGUG [Fam2.2 aminoacylation ribozyme variant]	3.48	2.91	3.98	2.72	3.03	24.5
AUUCACUUAGGUCAUCGGGUC [Fam2.2 aminoacylation ribozyme variant]	1.06	1.04	0.969	1.2	1.22	0.826
AUUCACUUAGGUCAUCGGUUG [Fam2.2 aminoacylation ribozyme variant]	0.519	0.87	0.901	0.831	0.764	0.69
AUUCACUUAGGUCCUCGGGUG [Fam2.2 aminoacylation ribozyme variant]	4.66	3.12	6.52	2.96	4.58	35.8

Sequence	self-aminoacylation (biotinyl-Trp-oxazolone)	self-aminoacylation (biotinyl-Ile-oxazolone)	self-aminoacylation (biotinyl-Leu-oxazolone)	self-aminoacylation (biotinyl-Val-oxazolone)	self-aminoacylation (biotinyl-Met-oxazolone)	self-aminoacylation (biotinyl-Phe-oxazolone)
AUUCACUUUGGUCAUCGGGUG [Fam2.2 aminoacylation ribozyme variant]	7.2	4.75	9.51	4.71	8.05	65.4
AUUCAGCUAGGCCAUCGGGUG [Fam2.2 aminoacylation ribozyme variant]	10.1	6.95	12.4	6.97	10.1	72.1
AUUCAGCUAGGUCAUCGAGUG [Fam2.2 aminoacylation ribozyme variant]	1.98	2.01	2.86	1.95	2.24	8.78
AUUCAGCUAGGUCAUCGCGUG [Fam2.2 aminoacylation ribozyme variant]	5.71	4.48	6.83	5.79	6.28	54.8
AUUCAGCUAGGUCAUCGGGCG [Fam2.2 aminoacylation ribozyme variant]	3.83	2.48	3.92	2.79	3.2	17.5
AUUCAGCUAGGUCAUCGGGGG [Fam2.2 aminoacylation ribozyme variant]	2.72	3.18	3.48	2.23	2.69	16.7
AUUCAGCUAGGUCAUCGGGUA [Fam2.2 aminoacylation ribozyme variant]	2.76	3.18	3.67	3.3	3.6	29.7
AUUCAGCUUGGUCAUCGGGUG [Fam2.2 aminoacylation ribozyme variant]	4.05	2.75	3.63	3.37	3.5	14
AUUCAUCGAGGUCAUCGGGUG [Fam2.2 aminoacylation ribozyme variant]	10.1	7.05	14.9	6.97	12	83.3
AUUCAUCUAGGACAUCGGGUG [Fam2.2 aminoacylation ribozyme variant]	3.07	2.75	3.59	2.74	3.39	17.3
AUUCAUCUAGGUAAUCGGGUG [Fam2.2 aminoacylation ribozyme variant]	2.6	1.95	4.09	1.73	3.07	19.5
AUUCAUCUAGGUCAGCGGGUG [Fam2.2 aminoacylation ribozyme variant]	4.36	3.25	5.56	3.23	4.17	25.3
AUUCAUCUAGGUCAUCCGGUG [Fam2.2 aminoacylation ribozyme variant]	6.87	4.53	8.6	4.65	6.61	48.9
AUUCAUCUAGGUCAUCGCGUG [Fam2.2 aminoacylation ribozyme variant]	11.3	7.55	18.5	7.87	14.2	128
AUUCAUCUAGGUCAUCGGAUG [Fam2.2 aminoacylation ribozyme variant]	0.846	0.962	0.802	1.04	0.879	0.576
AUUCAUCUAGGUCAUCGGGAG [Fam2.2 aminoacylation ribozyme variant]	1.36	1.11	0.697	1.16	0.945	0.786
AUUCAUCUAGGUCAUCGGGCG [Fam2.2 aminoacylation ribozyme variant]	2.66	2.58	3.27	2.71	3.33	14.7
AUUCAUCUAGGUCAUCGGGUA [Fam2.2 aminoacylation ribozyme variant]	5.53	3.09	5.18	3.46	4.18	4.63
AUUCAUCUAGGUCAUCGGGUU [Fam2.2 aminoacylation ribozyme variant]	2.36	2.22	2.81	2.03	2.46	3.41
AUUCAUCUAGGUCAUCUGGUG [Fam2.2 aminoacylation ribozyme variant]	2.86	2.1	4.25	2.16	3.4	18.8
AUUCAUCUAGGUCAUGGGGUG [Fam2.2 aminoacylation ribozyme variant]	4.54	3.26	6.73	3.14	4.98	37
